Source: PMC8888484, “Ubr1-induced selective endophagy/autophagy protects against the endosomal and Ca^2+-induced proteostasis disease stress” (Cellular and Molecular Life Sciences: CMLS, 2022)

T1: HA-MLC1-S280L-Bir* (human (by the printed GeneID 23209; the …, UniProt Q15049 1-377, S280L)
T1 construct: MLC1, GeneID 23209, disease-causing variant S280L, as a chimera with Bir*; also called SL-b
T1 sequence (looked up): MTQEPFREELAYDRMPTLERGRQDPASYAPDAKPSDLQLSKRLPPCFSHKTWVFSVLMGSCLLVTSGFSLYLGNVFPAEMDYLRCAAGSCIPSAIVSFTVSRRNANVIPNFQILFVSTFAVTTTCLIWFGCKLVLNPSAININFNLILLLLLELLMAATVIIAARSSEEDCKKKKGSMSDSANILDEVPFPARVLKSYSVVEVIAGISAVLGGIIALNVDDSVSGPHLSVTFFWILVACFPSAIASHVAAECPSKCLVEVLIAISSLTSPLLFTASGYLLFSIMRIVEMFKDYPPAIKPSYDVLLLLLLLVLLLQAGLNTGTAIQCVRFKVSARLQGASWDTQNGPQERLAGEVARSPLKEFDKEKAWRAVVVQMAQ


What was measured:
[1] = target: mutants (MLC1 mutants of Fig. 3A); assay: co-IP; cell surface immunoprecipitation (cs-IP): anti-GlialCAM Ab bound to live HeLa cells 45 min on ice, unbound Ab washed off, lysis (0.4% NP-40 in co-IP assays), MLC1/GlialCAM complex precipitated, Western blot; signals normalised to precipitated MLC1; for Fig. 7G cells with siUbr1 or siNT and Flag-Ubr1-wt or -CI
[2] = target: T1, HA-MLC1-S280L-Bir*; assay: proximity labelling; proximity biotinylation with MLC1-Bir* chimera as bait, 50 µM biotin, cs-IP with anti-GlialCAM Ab, biotinylated proteins recovered on streptavidin/neutravidin beads, Western blot for Ubr1; normalised for the PM amount of MLC1; settings: partners not purified

Sequence of CHIP (C-terminus of Hsc70-interacting protein) (Q9UNE7 whole entry): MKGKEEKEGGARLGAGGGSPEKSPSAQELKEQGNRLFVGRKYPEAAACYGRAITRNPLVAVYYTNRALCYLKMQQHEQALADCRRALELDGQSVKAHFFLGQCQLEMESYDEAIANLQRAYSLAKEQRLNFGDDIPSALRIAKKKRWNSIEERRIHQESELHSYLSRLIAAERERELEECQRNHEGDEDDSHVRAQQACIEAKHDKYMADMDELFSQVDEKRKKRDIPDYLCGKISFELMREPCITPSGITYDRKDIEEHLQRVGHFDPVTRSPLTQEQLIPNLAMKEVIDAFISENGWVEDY

Row | fold association against MLC1-wt [1] [fold] | fold biotinylation against MLC1-wt [2] [fold] | Molecule
1 | 2 to 5 | – | CHIP (C-terminus of Hsc70-interacting protein) (from UniProt Q9UNE7 1-303)
2 | – | ~8 | endogenous Ubr1 (enzyme, UniProt Q8IWV7 1-1749, looked up, biotinylated in cells by MLC1-Bir*, Ubr1, endogenous, detected with anti-Ubr1 (Abcam)) MADEEAGGTERMEISAELPQTPQRLASWWDQQVDFYTAFLHHLAQLVPEIYFAEMDPDLEKQEESVQMSIFTPLEWYLFGEDPDICLEKLKHSGAFQLCGRVFKSGETTYSCRDCAIDPTCVLCMDCFQDSVHKNHRYKMHTSTGGGFCDCGDTEAWKTGPFCVNHEPGRAGTIKENSRCPLNEEVIVQARKIFPSVIKYVVEMTIWEEEKELPPELQIREKNERYYCVLFNDEHHSYDHVIYSLQRALDCELAEAQLHTTAIDKEGRRAVKAGAYAACQEAKEDIKSHSENVSQHPLHVEVLHSEIMAHQKFALRLGSWMNKIMSYSSDFRQIFCQACLREEPDSENPCLISRLMLWDAKLYKGARKILHELIFSSFFMEMEYKKLFAMEFVKYYKQLQKEYISDDHDRSISITALSVQMFTVPTLARHLIEEQNVISVITETLLEVLPEYLDRNNKFNFQGYSQDKLGRVYAVICDLKYILISKPTIWTERLRMQFLEGFRSFLKILTCMQGMEEIRRQVGQHIEVDPDWEAAIAIQMQLKNILLMFQEWCACDEELLLVAYKECHKAVMRCSTSFISSSKTVVQSCGHSLETKSYRVSEDLVSIHLPLSRTLAGLHVRLSRLGAVSRLHEFVSFEDFQVEVLVEYPLRCLVLVAQVVAEMWRRNGLSLISQVFYYQDVKCREEMYDKDIIMLQIGASLMDPNKFLLLVLQRYELAEAFNKTISTKDQDLIKQYNTLIEEMLQVLIYIVGERYVPGVGNVTKEEVTMREIIHLLCIEPMPHSAIAKNLPENENNETGLENVINKVATFKKPGVSGHGVYELKDESLKDFNMYFYHYSKTQHSKAEHMQKKRRKQENKDEALPPPPPPEFCPAFSKVINLLNCDIMMYILRTVFERAIDTDSNLWTEGMLQMAFHILALGLLEEKQQLQKAPEEEVTFDFYHKASRLGSSAMNIQMLLEKLKGIPQLEGQKDMITWILQMFDTVKRLREKSCLIVATTSGSESIKNDEITHDKEKAERKRKAEAARLHRQKIMAQMSALQKNFIETHKLMYDNTSEMPGKEDSIMEEESTPAVSDYSRIALGPKRGPSVTEKEVLTCILCQEEQEVKIENNAMVLSACVQKSTALTQHRGKPIELSGEALDPLFMDPDLAYGTYTGSCGHVMHAVCWQKYFEAVQLSSQQRIHVDLFDLESGEYLCPLCKSLCNTVIPIIPLQPQKINSENADALAQLLTLARWIQTVLARISGYNIRHAKGENPIPIFFNQGMGDSTLEFHSILSFGVESSIKYSNSIKEMVILFATTIYRIGLKVPPDERDPRVPMLTWSTCAFTIQAIENLLGDEGKPLFGALQNRQHNGLKALMQFAVAQRITCPQVLIQKHLVRLLSVVLPNIKSEDTPCLLSIDLFHVLVGAVLAFPSLYWDDPVDLQPSSVSSSYNHLYLFHLITMAHMLQILLTVDTGLPLAQVQEDSEEAHSASSFFAEISQYTSGSIGCDIPGWYLWVSLKNGITPYLRCAALFFHYLLGVTPPEELHTNSAEGEYSALCSYLSLPTNLFLLFQEYWDTVRPLLQRWCADPALLNCLKQKNTVVRYPRKRNSLIELPDDYSCLLNQASHFRCPRSADDERKHPVLCLFCGAILCSQNICCQEIVNGEEVGACIFHALHCGAGVCIFLKIRECRVVLVEGKARGCAYPAPYLDEYGETDPGLKRGNPLHLSRERYRKLHLVWQQHCIIEEIARSQETNQMLFGFNWQLL
